Assay results as given in article PMC3506659, “Snm1B Interacts with PSF2” (PLoS ONE, 2012).

Key:
[1] = molecular target: N-terminal Myc epitope-tagged human PSF2 (Myc-PSF2) (UniProt Q9Y248); assay: co-immunoprecipitation (IP anti-Flag, IB anti-Myc), band ratio; details: 293T cells, transient expression
[2] = molecular target: T1, GFP-Flag-Snm1B^221–363 (human, UniProt Q9H816 221-363); assay: co-IP; 293T transiently co-transfected, RIPA lysate, GFP-Flag-Snm1B fragments immunoprecipitated with anti-GFP antibody and GammaBind G Sepharose, immunoblot anti-Myc; details: partners not purified
T1 construct: Named GFP-Flag-Snm1B: the Flag tag is at the 5′ end of the Snm1B fragment, GFP is fused in frame; also called PSF2 BR1; source: 293T, transiently transfected (pEGFP-C3), in lysate; not shown: Flag, N-terminal, kept
T1 sequence (looked up): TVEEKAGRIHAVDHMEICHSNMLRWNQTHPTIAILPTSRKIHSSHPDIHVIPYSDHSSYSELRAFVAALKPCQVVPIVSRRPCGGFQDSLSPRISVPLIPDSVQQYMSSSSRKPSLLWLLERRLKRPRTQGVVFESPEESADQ

[3] = molecular target: T2, Flag-Snm1B^Δ222–363 (human, UniProt Q9H816 1-221; Q9H816 364-532); assay: co-IP; 293T transiently co-transfected, RIPA lysate, Flag-Snm1B immunoprecipitated with anti-Flag M2 affinity gel at 4°C overnight, immunoblot for Myc-PSF2 or Mus81; with or without co-expressed Myc-PSF2 or HA-Mus81; details: partners not purified
T2 construct: RGR is my translation read in frame from its first base; source: 293T, transiently transfected (pLPC), in lysate; not shown: Flag, N-terminal, kept
T2 chain: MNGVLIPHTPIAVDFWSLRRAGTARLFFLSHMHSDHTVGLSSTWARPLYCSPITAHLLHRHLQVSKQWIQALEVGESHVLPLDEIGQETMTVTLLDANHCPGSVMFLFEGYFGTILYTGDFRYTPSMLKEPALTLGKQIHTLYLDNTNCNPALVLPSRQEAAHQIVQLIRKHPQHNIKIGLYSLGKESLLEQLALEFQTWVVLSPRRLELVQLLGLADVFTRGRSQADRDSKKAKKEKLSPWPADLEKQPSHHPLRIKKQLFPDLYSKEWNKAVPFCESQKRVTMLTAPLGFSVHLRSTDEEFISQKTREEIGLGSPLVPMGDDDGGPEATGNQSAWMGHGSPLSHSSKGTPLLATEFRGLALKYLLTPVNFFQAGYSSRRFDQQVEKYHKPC

[4] = molecular target: T3, N-terminal Flag epitope-tagged human Snm1B (Flag-Snm1B) (human, UniProt Q9H816 1-532); assay: as above; details: partners not purified
T3 construct: also called Flag-Snm1B-WT; Flag-Snm1B^WT; source: 293T, transiently transfected (pLPC), in lysate; not shown: Flag, N-terminal, kept
T3 sequence (looked up): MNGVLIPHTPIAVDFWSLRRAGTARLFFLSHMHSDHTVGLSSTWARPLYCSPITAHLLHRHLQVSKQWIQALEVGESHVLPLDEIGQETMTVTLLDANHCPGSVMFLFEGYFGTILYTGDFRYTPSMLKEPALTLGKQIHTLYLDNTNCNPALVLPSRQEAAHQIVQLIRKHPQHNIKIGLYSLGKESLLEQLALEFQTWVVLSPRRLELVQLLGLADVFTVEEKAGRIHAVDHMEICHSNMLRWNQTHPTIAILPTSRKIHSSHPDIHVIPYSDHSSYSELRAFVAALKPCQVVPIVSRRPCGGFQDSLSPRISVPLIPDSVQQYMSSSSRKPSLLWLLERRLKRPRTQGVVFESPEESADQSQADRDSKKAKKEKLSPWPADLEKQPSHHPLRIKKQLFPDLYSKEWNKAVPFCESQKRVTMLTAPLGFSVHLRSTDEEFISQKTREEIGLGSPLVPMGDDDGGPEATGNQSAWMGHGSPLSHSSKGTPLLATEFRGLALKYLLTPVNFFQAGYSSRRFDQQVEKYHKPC

Molecule: N-terminal Flag epitope-tagged human Snm1B (Flag-Snm1B) (from UniProt Q9H816) N2
- other: normalized Myc-PSF2:Flag-Snm1B ratio ([1]; no Myc-TRF2 co-expressed, parent: 1): 1.05
- other: normalized Myc-PSF2:Flag-Snm1B ratio ([1]; wild type Myc-TRF2 co-expressed (parent value is Flag-Snm1B WT + Myc-TRF2 WT + Myc-PSF2 lane), parent: 0.41): 0.81

B1: N-terminal Myc epitope-tagged human PSF2 (Myc-PSF2) (natural protein, UniProt Q9Y248 1-185, looked up)
chain: MDAAEVEFLAEKELVTIIPNFSLDKIYLIGGDLGPFNPGLPVEVPLWLAINLKQRQKCRLLPPEWMDVEKLEKMRDHERKEETFTPMPSPYYMELTKLLLNHASDNIPKADEIRTLVKDMWDTRIAKLRVSADSFVRQQEAHAKLDNLTLMEINTSGTFLTQALNHMYKLRTNLQPLESTQSQDF
notes: PSF2, subunit of the GINS complex, human, full length; amplified from clone MGC-673 (ATCC); source: 293T, transiently transfected (pCMV-MYC), in lysate; not shown: Myc, N-terminal, kept
- fold of co-immunoprecipitated Myc-PSF2 against GFP-Flag-Snm1B 413–532 [2]: ~3 fold more
- fold of co-immunoprecipitated Myc-PSF2 against Flag-Snm1B WT [3]: ~6 fold less

B2: HA epitope-tagged Mus81 (HA-Mus81) (natural protein, UniProt Q96NY9 1-551, looked up)
chain: MAAPVRLGRKRPLPACPNPLFVRWLTEWRDEATRSRRRTRFVFQKALRSLRRYPLPLRSGKEAKILQHFGDGLCRMLDERLQRHRTSGGDHAPDSPSGENSPAPQGRLAEVQDSSMPVPAQPKAGGSGSYWPARHSGARVILLVLYREHLNPNGHHFLTKEELLQRCAQKSPRVAPGSARPWPALRSLLHRNLVLRTHQPARYSLTPEGLELAQKLAESEGLSLLNVGIGPKEPPGEETAVPGAASAELASEAGVQQQPLELRPGEYRVLLCVDIGETRGGGHRPELLRELQRLHVTHTVRKLHVGDFVWVAQETNPRDPANPGELVLDHIVERKRLDDLCSSIIDGRFREQKFRLKRCGLERRVYLVEEHGSVHNLSLPESTLLQAVTNTQVIDGFFVKRTADIKESAAYLALLTRGLQRLYQGHTLRSRPWGTPGNPESGAMTSPNPLCSLLTFSDFNAGAIKNKAQSVREVFARQLMQVRGVSGEKAAALVDRYSTPASLLAAYDACATPKEQETLLSTIKCGRLQRNLGPALSRTLSQLYCSYGPLT
notes: Mus81, subunit of the Mus81/Eme1 endonuclease; amplified from clone MGC:14953 (Imagenes); Detected with an anti-Mus81 antibody, which may also see the endogenous Mus81 of 293T cells; source: 293T, transiently transfected (pcDNA3), in lysate; not shown: HA, N-terminal, kept
- fold increase of co-immunoprecipitated Mus81 with Myc-PSF2 against without Myc-PSF2 [4]: > 2 fold
